In PMC9952701:

Biological target: insulin-like growth factor receptor type 1 (IGF1R) (mouse (endogenous in HEI-OC1)) (UniProt Q60751)
Sequence of UniProt Q60751 (Q60751 31-1373): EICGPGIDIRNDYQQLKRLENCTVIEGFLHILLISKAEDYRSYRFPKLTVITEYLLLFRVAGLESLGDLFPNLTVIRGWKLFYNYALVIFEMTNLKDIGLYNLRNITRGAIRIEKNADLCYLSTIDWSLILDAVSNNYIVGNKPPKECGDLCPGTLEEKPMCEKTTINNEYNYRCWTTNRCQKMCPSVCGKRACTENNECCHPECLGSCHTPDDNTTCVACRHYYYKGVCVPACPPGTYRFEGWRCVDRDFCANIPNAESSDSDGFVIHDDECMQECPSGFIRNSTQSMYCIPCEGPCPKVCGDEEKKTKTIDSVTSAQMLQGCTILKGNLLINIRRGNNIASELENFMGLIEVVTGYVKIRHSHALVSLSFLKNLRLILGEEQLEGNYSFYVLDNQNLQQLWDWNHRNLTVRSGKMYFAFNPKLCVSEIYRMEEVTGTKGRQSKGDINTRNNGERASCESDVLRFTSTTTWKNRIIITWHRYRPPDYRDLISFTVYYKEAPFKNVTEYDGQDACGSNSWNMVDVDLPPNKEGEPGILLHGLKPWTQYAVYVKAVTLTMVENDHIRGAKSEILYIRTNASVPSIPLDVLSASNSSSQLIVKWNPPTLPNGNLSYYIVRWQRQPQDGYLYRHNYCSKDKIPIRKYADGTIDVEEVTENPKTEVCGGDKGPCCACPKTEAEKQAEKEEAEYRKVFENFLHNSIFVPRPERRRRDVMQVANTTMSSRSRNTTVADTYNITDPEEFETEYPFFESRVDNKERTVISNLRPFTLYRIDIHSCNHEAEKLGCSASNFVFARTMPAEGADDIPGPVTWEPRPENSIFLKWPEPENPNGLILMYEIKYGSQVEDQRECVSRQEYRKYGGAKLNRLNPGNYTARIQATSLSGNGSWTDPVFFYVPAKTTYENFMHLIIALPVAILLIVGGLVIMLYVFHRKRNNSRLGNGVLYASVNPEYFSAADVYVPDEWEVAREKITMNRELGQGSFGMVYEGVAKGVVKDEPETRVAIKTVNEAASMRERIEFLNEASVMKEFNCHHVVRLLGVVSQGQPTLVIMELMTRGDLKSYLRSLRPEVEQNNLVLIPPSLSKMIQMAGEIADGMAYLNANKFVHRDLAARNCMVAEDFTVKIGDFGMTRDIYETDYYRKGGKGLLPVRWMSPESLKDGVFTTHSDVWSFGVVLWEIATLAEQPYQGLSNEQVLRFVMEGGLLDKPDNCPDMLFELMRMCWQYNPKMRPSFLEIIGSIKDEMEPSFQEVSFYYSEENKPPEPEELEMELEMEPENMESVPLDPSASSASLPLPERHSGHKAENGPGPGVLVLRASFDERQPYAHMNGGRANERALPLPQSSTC

- p-IGF1Rβ (Tyr1135) level by Western blot in HEI-OC1 progenitor cells treated with IGF-1 (10 nM), sustained for 30 min, versus untreated control: 11 fold
- p-IGF1Rβ (Tyr1135) level by Western blot in differentiated HEI-OC1 cells treated with IGF-1 (10 nM) for 5 min, versus untreated control: 3.5 fold
Substance: human recombinant IGF-1 (insulin-like growth factor 1) (from UniProt P05019 49-118) (ligand)
